Reference: patent US20100196390A1 (RINAT NEUROSCIENCE, published 2010)
Changes are numbered by the printed parent chain.

B1: 10-G3 (Fab, V domains shown)
VH: QVQLVQSGAEVKKPGASVKVSCKASGYTFTNYDIIWVRQAPGQGLEWMGYINPYNERTEYNEKFKGRVTMTRDTSTSTVYMELSSLRSEDTAVYYCARLLKYRRFRYYAIDYWGQGTTVTVSS
VL: DIQMTQSPSSLSASVGDRVTITCRASENVYRNLAWYQQKPGKAPKLLIYIASNLQSGVPSRFSGSGSGTDFTFTISSLQPEDIATYYCQHFVYSPFTFGQGTKLEIK
notes: Fab
B2: 13-C11 (Fab, V domains shown)
VH: B1 VH with E56G, T58R
VL: B1 VL with R31S, N32H, I50A, F71Y, V92W, Y93G
notes: Fab
B3: 11-D7 (Fab, V domains shown)
VH: B1 VH with E56G, T58R
VL: B1 VL with I50A, V92W, Y93G
notes: Fab
B4: 13-B3 (Fab, V domains shown)
VH: B1 VH with E56G, T58R
VL: B1 VL with R31N, I50A, F71Y, V92W, Y93G
notes: Fab
B5: 16-C1 (Fab, V domains shown)
VH: B1 VH with E56D, R57G, E59K, R106K
VL: B1 VL with R31S, I50A, V92W, F96W
notes: Fab
B6: 13-B2 (Fab, V domains shown)
VH: B1 VH with E56G, T58R
VL: B1 VL with E27K, N28P, R31S, I50A, F71Y, V92W, Y93G
notes: Fab
B7: 16-G9 (Fab, V domains shown)
VH: B1 VH with E56D, R57G, E59K
VL: B1 VL with R31S, I50A, V92W, T97G
notes: Fab
B8: 13-C12 (Fab, V domains shown)
VH: B1 VH with E56G, T58R
VL: B1 VL with I50A, F71Y
notes: Fab
B9: 16-H4 (Fab, V domains shown)
VH: B1 VH with E56D, R57G, E59K
VL: B1 VL with A25T, N28S, R31S, I50A, V92W, Y93A
notes: Fab
B10: 12-H6 (Fab, V domains shown)
VH: B1 VH with E56R, T58R
VL: B1 VL with I50A, F71Y, V92W, Y93G
notes: Fab
B11: 12-E9 (Fab, V domains shown)
VH: B1 VH with E56D, R57G, E59K, G66Y
VL: B1 VL with N28S, R31N, I50A, V92W, Y93G
notes: Fab
B12: 11-C7 (Fab, V domains shown)
VH: B1 VH with E56R, T58I
VL: B1 VL with R31S, N32H, I50A, V92W, Y93G
notes: Fab
B13: 12-D8 (Fab, V domains shown)
VH: B1 VH with E56G, T58R
VL: B1 VL with R31S, L33T, I50A, F71Y, V92W, Y93G
notes: Fab
B14: 16-A6 (Fab, V domains shown)
VH: B1 VH with E56D, R57G, E59K
VL: B1 VL with A25T, R31S, I50A, Q55A, S56D, V92W, Y93A
notes: Fab
B15: 13-B4 (Fab, V domains shown)
VH: B1 VH with E56D, R57G, T58R, E59K, Y60E
VL: B1 VL with R31M, I50A, F71Y, V92W
notes: Fab
B16: 13-F12 (Fab, V domains shown)
VH: B1 VH with E56G, T58R
VL: B1 VL with I50A, F71Y, V92W, Y93G
notes: Fab
B17: 13-H3 (Fab, V domains shown)
VH: B1 VH with E56D, R57G, T58R, E59K, Y60E
VL: B1 VL with R31S, I50A, F71Y, V92W, Y93G
notes: Fab
B18: 15-G6 (Fab, V domains shown)
VH: B1 VH with E56D, R57G, E59K, R106K
VL: B1 VL with A25T, R31S, I50A, H90Q, V92W
notes: Fab
B19: 11-G2 (Fab, V domains shown)
VH: B1 VH with E56D, R57G, T58R, E59K, Y60E
VL: B1 VL with R31S, I50A, V92W, Y93D
notes: Fab
B20: 16-B7 (Fab, V domains shown)
VH: B1 VH with E56D, R57G, E59K
VL: B1 VL with R31S, I50A, Q55A, S56D, V92W, Y93A
notes: Fab
B21: 11-C6 (Fab, V domains shown)
VH: B1 VH with E56G, T58R
VL: B1 VL with E27S, R31S, I50A, F71Y, V92W, Y93G
notes: Fab
B22: 11-G5 (Fab, V domains shown)
VH: B1 VH with E56G, T58R
VL: B1 VL with R31Y, I50A, V92W
notes: Fab
B23: 12-C9 (Fab, V domains shown)
VH: B1 VH with E56G
VL: B1 VL with E27K, R31S, I50A, H90Q, V92W
notes: Fab
B24: 12-B5 (Fab, V domains shown)
VH: B1 VH with E56R, T58I
VL: B1 VL with R31S, N32H, I50A, F71Y, V92W, Y93G
notes: Fab
B25: 11-D8 (Fab, V domains shown)
VH: B1 VH with E56G, T58R
VL: B1 VL with E27T, R31S, I50A, V92W, Y93G
notes: Fab
B26: 16-D6 (Fab, V domains shown)
VH: B1 VH with E56D, R57G, E59K, R106K
VL: B1 VL with R31S, I50A, Q55A, S56D, H90D, V92W
notes: Fab
B27: 12-E5 (Fab, V domains shown)
VH: B1 VH with E56G, T58R
VL: B1 VL with N28P, R31S, I50A, V92W, Y93G
notes: Fab
B28: 12-E11 (Fab, V domains shown)
VH: B1 VH with E56G, T58R
VL: B1 VL with N28P, R31N, I50A, F71Y, V92W
notes: Fab
B29: 16-A10 (Fab, V domains shown)
VH: B1 VH with E56D, R57G, E59K
VL: B1 VL with A25T, R31S, I50A, V92W, F96W
notes: Fab
B30: 13-D5 (Fab, V domains shown)
VH: B1 VH with E56G, T58R
VL: B1 VL with Y30T, R31S, I50A, F71Y, V92W, Y93G
notes: Fab
B31: 13-C7 (Fab, V domains shown)
VH: B1 VH with E56G, T58R
VL: B1 VL with N28P, R31S, I50A, F71Y, V92W
notes: Fab
B32: 12-A8 (Fab, V domains shown)
VH: B1 VH with E56D, R57G, T58R, E59K, Y60E
VL: B1 VL with R31S, I50A, V92W, Y93G
notes: Fab
B33: 13-C6 (Fab, V domains shown)
VH: B1 VH with E56G, T58R
VL: B1 VL with N28P, R31S, L33V, I50A, V92W, Y93G
notes: Fab
B34: 13-A12 (Fab, V domains shown)
VH: B1 VH with E56D, R57G, T58R, E59K, Y60E
VL: B1 VL with I50A, F71Y, V92W
notes: Fab
B35: 14-B1 (Fab, V domains shown)
VH: B1 VH with E56D, R57G, T58R, E59K, Y60E
VL: B1 VL with N28P, R31S, I50A, F71Y, V92W, Y93G
notes: Fab
B36: 15-H1 (Fab, V domains shown)
VH: B1 VH with E56D, R57G, E59K, R103A, R104C, Y107E, Y108E
VL: B1 VL with R31S, I50A, V92W, Y93E
notes: Fab
B37: 11-G10 (Fab, V domains shown)
VH: B1 VH with E56G, T58R
VL: B1 VL with R31S, I50A, V92W, Y93G
notes: Fab
B38: 16-F4 (Fab, V domains shown)
VH: B1 VH with E56D, R57G, E59K
VL: B1 VL with R31S, I50A, Q55A, S56D, V92W, Y93T
notes: Fab
B39: 11-B11 (Fab, V domains shown)
VH: B1 VH with E56G, T58R
VL: B1 VL with N28P, R31S, I50A, V92W, Y93G
notes: Fab
B40: 11-B9 (Fab, V domains shown)
VH: B1 VH with E56G, T58R
VL: B1 VL with E27T, I50A, V92W, Y93G
notes: Fab
B41: 16-C3 (Fab, V domains shown)
VH: B1 VH with E56D, R57G, E59K
VL: B1 VL with R31S, I50A, H90Q, V92W
notes: Fab
B42: 16-E4 (Fab, V domains shown)
VH: B1 VH with E56D, R57G, E59K
VL: B1 VL with R31S, I50A, V92W, F96W
notes: Fab
B43: 13-H6 (Fab, V domains shown)
VH: B1 VH with E56D, R57G, T58R, E59K, Y60E
VL: B1 VL with R31S, N32H, I50A, F71Y
notes: Fab
B44: 14-A6 (Fab, V domains shown)
VH: B1 VH with E56R, T58R
VL: B1 VL with R24H, R31S, I50A, V92W, Y93G
notes: Fab
B45: 13-C5 (Fab, V domains shown)
VH: B1 VH with E56G, T58R
VL: B1 VL with N28P, R31S, I50A, F71Y, V92W, Y93G
notes: Fab
B46: 12-C8 (Fab, V domains shown)
VH: B1 VH with E56G, T58R
VL: B1 VL with E27K, R31S, I50A, V92W, Y93G
notes: Fab
B47: 11-F9 (Fab, V domains shown)
VH: B1 VH with E56D, R57G, T58R, E59K, Y60E
VL: B1 VL with I50A, V92W
notes: Fab

What follows are binders tested against TrkB (Homo sapiens (Human), UniProt Q16620 32-430) (assay: koff of Fab at 25 C; T1/2=Log2/koff).
Chain of TrkB (Q16620 32-430 limits assumed): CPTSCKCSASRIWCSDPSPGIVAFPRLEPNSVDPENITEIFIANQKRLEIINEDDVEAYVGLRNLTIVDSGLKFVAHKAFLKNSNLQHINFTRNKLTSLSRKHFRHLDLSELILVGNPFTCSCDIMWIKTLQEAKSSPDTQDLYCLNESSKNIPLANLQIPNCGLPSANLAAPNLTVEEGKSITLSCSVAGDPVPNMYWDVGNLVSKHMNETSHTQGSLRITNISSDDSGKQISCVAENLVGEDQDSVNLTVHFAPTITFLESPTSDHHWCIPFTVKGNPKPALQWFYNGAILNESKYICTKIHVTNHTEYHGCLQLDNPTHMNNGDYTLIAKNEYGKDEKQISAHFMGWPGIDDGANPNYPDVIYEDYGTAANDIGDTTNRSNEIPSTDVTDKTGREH
How it was run: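 Monovalent Fab fragments were tested at 25° C by surface plasmon resonance on a Biacore instrument, against TrkB extracellular-domain monomer amine-coupled to the chip at low capacity. Fabs were injected low to high as a 3-fold serial dilution from 100 nM for 84 sec, with a 10 minute dissociation after the top sample. The dissociation half-life was calculated from koff, which was fitted to a Langmuir binding model in BIAevaluation. The formula used was T1/2 = Log 2/koff.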

T1/2 [min] | Binder
4.8 | B1
13 | B2
4.1 | B3
13 | B4
6 | B5
13 | B6
4 | B7
13 | B8
6 | B9
12 | B10
3.5 | B11
4.9 | B12
10 | B13
1 | B14
13 | B15
13 | B16
13 | B17
1.8 | B18
1.5 | B19
5 | B20
10.8 | B21
5.9 | B22
0.8 | B23
10 | B24

T1/2 [min] | Binder
2.5 | B25
1 | B26
7.5 | B27
11 | B28
6 | B29
13 | B30
13 | B31
3.3 | B32
4.8 | B33
13 | B34
13 | B35
2.1 | B36
3 | B37
5 | B38
5.5 | B39
4.9 | B40
1 | B41
7 | B42
13 | B43
2.8 | B44
13 | B45
8 | B46
6.2 | B47
